Source: publication PMC7810697, “Sarcolipin alters SERCA1a interdomain communication by impairing binding of both calcium and ATP” (Scientific Reports, 2021)
Ends that are not written are not given here. * marks the point of attachment. Palmitoyl = CCCCCCCCCCCCCCCC(=O)*

What was measured:
[1] = target: T1, recombinant SERCA1a (recS1a) (Oryctolagus cuniculus, UniProt P04191); assay: Vanadate inhibition of phosphoenzyme formation, recS1a; format: biochemical, rabbit (expressed in S. cerevisiae); conditions: for K1/2 (K0.5) for vanadate inhibition, recS1a + pSLN: DDM-solubilized, preincubation with orthovanadate without calcium, phosphorylation 30 s at 0 °C, three independent experiments, p < 0.0001 vs recS1a alone
T1 construct: BAD (biotin acceptor domain) (C, cleaved yes); made in house; host or cells: Saccharomyces cerevisiae
Experimental: Transient formation of the phosphoenzyme intermediate was measured after incubation with [γ^32P]ATP followed by acid quenching, and filtration. For most experiments, 50 µL of enzyme at 10 µg/mL in a buffer containing 50 mM Tes-Tris pH7.5, 1 mM KCl, 5 mM MgCl2, 20% glycerol (w/w) and 0.5 mg/mL DDM, supplemented or not with SLN, was stored on ice. Concentrations of EGTA and calcium are specified in figure legends in order to reach the appropriate [Ca^2+]free and therefore the desired starting state for the ATPase. For kinetics of phosphorylation, we initiate reaction by addition of 2 µM [γ^32P]ATP (5 mCi/µmole), and calcium at 100 µM when specified. Reaction was quenched by addition of 2 mL of cold quenching medium (500 mM TCA + 30 mM H3P0_4) under vigorous mixing, and immediately stored on ice for 20–30 min to improve precipitation, a period of time critical for retention of the precipitate on the filter in presence of detergent. This was followed by filtration on GS filters (Millipore, Saint Quentin-Fallavier, France) and careful rinsing of the filters with diluted quenching medium (50 mM TCA + 3 mM H3P0_4). The amount of radioactivity bound to the filter was estimated by liquid scintillation counting (Perkin Elmer TriCarb Counter). When starting from a calcium-deprived state (Fig. 4C,D), EGTA was added only one minute before starting phosphorylation to limit irreversible inactivation of the solubilized ATPase, although the presence of glycerol helps in protecting the enzyme from irreversible inactivation. For dephosphorylation kinetics, 1 mM “cold” Mg.ATP was added after a 30 s period of phosphorylation. For Ca^2+-dependency, we adjust the concentration of free calcium according to the Ca.EGTA constant as mentioned above, before triggering phosphorylation. […] Phosphorylations were done at 0 °C especially for inhibition by vanadate to prevent dissociation of vanadate and limit irreversible inactivation in absence of calcium.

[2] = target: T1, recombinant SERCA1a (recS1a); assay: Steady-state ATPase activity, enzyme-coupled assay; format: biochemical, rabbit (expressed in S. cerevisiae)
Experimental: resuspended in a large volume of pure water and lyophilized to evaporate most of the TFA. The rinsed powder was then suspended in presence of 10 mM HCl to exchange the anionic residual TFA that may interact with the positive charges of the peptide for chloride. This suspension was lyophilized again.
Three additional cycles of – dissolving in pure water / lyophilisation – will allow to eliminate traces of TFA and to get back to a pH compatible with functional tests. For final solubilisation of SLN in detergent, powder was then dissolved in 50% TFE and an amount of detergent to reach a 100:1 mole:mole detergent:SLN ratio. Here, we used C12E8 as it is fully compatible with functional characterization of SERCA1a 23. This suspension was then lyophilized again to evaporate TFE.
Sarcolipins (Palm-SLN or SLN) were finally resuspended at 0.8 mg/mL (about 200 µM) in a 10 mM potassium phosphate buffer pH 7.4, in the presence of 2.5 mg/mL C12E8.
Expression and Purification of recombinant SERCA1a (recS1a)
The yeast expression plasmid pYeDP60-SERCA1a-BAD (WT) and expression in Saccharomyces cerevisiae was described previously 30. Yeast membranes were solubilized by DDM for subsequent purification of recombinant Ca2+-ATPase by Streptavidin affinity chromatography 31. Purified recombinant SERCA1a was recovered in a buffer containing 50 mM MOPS-Tris pH7, 100 mM KCl, 5 mM MgCl2, 2.1 mM CaCl2, 40 % glycerol (v/v) and 0.5 mg/mL DDM, together with some thrombin remaining from the elution procedure. The protein concentration in the purified fraction was in the 0.05 to 0.15 mg/mL range depending on the batch. […]
Steady-state ATPase activity measurements
Measurements were performed using classical enzyme coupled assay. We measured the rate of NADH oxidation in the presence of 0.1 mg/mL lactate deshydrogenase, 0.05 mg/mL pyruvate kinase, 1 mM phosphoenolpyruvate, 0.25 mM NADH (protocol was adapted from 22) and in the additional presence of 2 mg/mL C12E8 to limit time-dependent inactivation of the purified SERCA1a 20,23.

T1 sequence (P04191 1-994 isoform P04191-2): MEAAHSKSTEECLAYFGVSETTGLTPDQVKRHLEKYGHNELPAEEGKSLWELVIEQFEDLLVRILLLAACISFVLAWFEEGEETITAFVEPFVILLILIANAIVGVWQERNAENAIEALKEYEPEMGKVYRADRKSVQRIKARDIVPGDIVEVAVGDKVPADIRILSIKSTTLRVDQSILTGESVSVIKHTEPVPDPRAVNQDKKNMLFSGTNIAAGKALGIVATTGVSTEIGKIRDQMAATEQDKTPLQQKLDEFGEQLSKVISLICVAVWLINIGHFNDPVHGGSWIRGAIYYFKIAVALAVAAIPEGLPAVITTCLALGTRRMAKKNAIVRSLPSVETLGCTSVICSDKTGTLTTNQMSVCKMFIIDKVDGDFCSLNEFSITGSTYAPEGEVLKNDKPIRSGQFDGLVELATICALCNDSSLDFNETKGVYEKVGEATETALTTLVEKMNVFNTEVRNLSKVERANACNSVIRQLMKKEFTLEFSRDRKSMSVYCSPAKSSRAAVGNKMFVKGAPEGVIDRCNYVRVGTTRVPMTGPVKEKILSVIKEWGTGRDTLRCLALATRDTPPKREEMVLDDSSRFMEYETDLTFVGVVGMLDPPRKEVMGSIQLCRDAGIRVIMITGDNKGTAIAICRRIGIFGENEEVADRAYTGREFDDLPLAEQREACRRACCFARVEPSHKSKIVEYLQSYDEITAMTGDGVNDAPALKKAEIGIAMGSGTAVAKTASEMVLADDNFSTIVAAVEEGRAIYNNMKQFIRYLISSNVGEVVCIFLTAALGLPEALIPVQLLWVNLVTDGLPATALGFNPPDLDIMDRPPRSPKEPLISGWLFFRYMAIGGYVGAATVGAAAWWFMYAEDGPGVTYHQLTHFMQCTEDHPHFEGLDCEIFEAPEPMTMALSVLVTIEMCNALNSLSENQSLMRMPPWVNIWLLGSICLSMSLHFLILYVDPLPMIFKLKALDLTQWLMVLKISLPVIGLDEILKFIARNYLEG

K1/2 (K0.5) for vanadate inhibition, recS1a + pSLN [1]: 0.22 ± 0.01 µM
K1/2 (K0.5) for vanadate inhibition, recS1a + pSLN ([1]; listed as Palm-SLN): 0.22+/-0.01 µM
EPmax (vanadate series) ([1]; recS1a + pSLN, recS1a alone 2.01 ± 0.05): 2.07 ± 0.21 nmoles/mg of ATPase
maximal turnover ([2]; recS1a + Palm-SLN, recS1a alone 2.88 +/- 0.12): 2.74 +/- 0.04 µmol ATP/mg/min
affinity for calcium and maximum turn-over ([2]; recS1a in absence or presence of pSLN, enzyme-coupled assay): no difference was observed
Ca1/2 (ATPase activity), recS1a + pSLN ([2]; steady state, NADH-coupled assay, 2 mg/mL C12E8, three independent experiments, p=0.248): 0.13 +/- 0.06 µM
Substance: pSLN: chemically synthesized S-palmitoylated rabbit sarcolipin, 31-residue single-spanning membrane peptide, palmitoylated on Cys9 (MERSTRELC(Palmitoyl)LNFTVVLITVILIWLLVRSYQY; UniProt P42532 1-31, looked up)
